Assay results: US20220096608

Molecular target: α2-antiplasmin (UniProt P08697)
Sequence (P08697 40-491): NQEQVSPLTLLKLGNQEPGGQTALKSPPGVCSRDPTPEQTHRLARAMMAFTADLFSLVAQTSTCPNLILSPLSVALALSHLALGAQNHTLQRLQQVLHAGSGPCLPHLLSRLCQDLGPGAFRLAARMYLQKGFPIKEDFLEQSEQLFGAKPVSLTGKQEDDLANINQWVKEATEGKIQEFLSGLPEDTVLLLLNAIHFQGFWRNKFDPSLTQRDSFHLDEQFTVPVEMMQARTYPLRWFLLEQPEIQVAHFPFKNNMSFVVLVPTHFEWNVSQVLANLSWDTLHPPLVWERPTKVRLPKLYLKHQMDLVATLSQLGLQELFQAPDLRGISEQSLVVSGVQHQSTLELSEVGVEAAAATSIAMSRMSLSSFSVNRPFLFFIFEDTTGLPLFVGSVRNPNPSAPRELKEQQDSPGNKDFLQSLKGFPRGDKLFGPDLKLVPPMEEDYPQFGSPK

Sequence of Mono-PEGylated Micro-plasmin variant (20 kDa PEG) E85C Catalytic Domain (SEQ ID NO. 7) (chain, as listed by the source E85C): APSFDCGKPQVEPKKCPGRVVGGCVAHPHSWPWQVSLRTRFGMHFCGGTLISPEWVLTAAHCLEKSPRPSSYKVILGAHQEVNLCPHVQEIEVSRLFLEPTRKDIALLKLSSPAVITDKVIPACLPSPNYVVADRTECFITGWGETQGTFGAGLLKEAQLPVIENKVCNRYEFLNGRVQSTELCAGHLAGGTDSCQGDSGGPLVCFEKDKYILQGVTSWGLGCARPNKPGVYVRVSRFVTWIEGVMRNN
Sequence of Mono-PEGylated Micro-plasmin variant (20 kDa PEG) V88C Catalytic Domain (SEQ ID NO. 10) (chain, as listed by the source V88C): as the sequence (chain, as listed by the source E85C) above, with C85E, V88C counted along it
Sequence of Mono-PEGylated Micro-plasmin variant (20 kDa PEG) P86C Catalytic Domain (SEQ ID NO. 8) (chain, as listed by the source P86C): as the sequence (chain, as listed by the source E85C) above, with C85E, P86C counted along it
Sequence of Bi-PEGylated Micro-plasmin variant (20 kDa-20 kDa PEG) E85C-H87C Catalytic Domain (SEQ ID NO. 11) (chain, as listed by the source E85C H87C): as the sequence (chain, as listed by the source E85C) above, with H87C counted along it
Sequence of Mono-PEGylated Micro-plasmin variant (40 kDa PEG) E85C Catalytic Domain (SEQ ID NO. 7) (chain, as listed by the source E85C): as the sequence (chain, as listed by the source E85C) above
Sequence of Mono-PEGylated Micro-plasmin variant (40 kDa PEG) V88C Catalytic Domain (SEQ ID NO. 10) (chain, as listed by the source V88C): as the sequence (chain, as listed by the source E85C) above, with C85E, V88C counted along it
Sequence of Mono-PEGylated Micro-plasmin variant (40 kDa PEG) P86C Catalytic Domain (SEQ ID NO. 8) (chain, as listed by the source P86C): as the sequence (chain, as listed by the source E85C) above, with C85E, P86C counted along it

| Substance | In vitro Half-life (of inactivation by α2-antiplasmin) [min] |
| --- | --- |
| Mono-PEGylated Micro-plasmin variant (40 kDa PEG) P86C Catalytic Domain (SEQ ID NO. 8) | >7 |
| Mono-PEGylated Micro-plasmin variant (20 kDa PEG) V88C Catalytic Domain (SEQ ID NO. 10) | 6 to 7 |
| Mono-PEGylated Micro-plasmin variant (20 kDa PEG) P86C Catalytic Domain (SEQ ID NO. 8) | 6 to 7 |
| Bi-PEGylated Micro-plasmin variant (20 kDa-20 kDa PEG) E85C-H87C Catalytic Domain (SEQ ID NO. 11) | >10 |
| Mono-PEGylated Micro-plasmin variant (40 kDa PEG) V88C Catalytic Domain (SEQ ID NO. 10) | >7 |
| Mono-PEGylated Micro-plasmin variant (40 kDa PEG) E85C Catalytic Domain (SEQ ID NO. 7) | >7 |
| Mono-PEGylated Micro-plasmin variant (20 kDa PEG) E85C Catalytic Domain (SEQ ID NO. 7) | 6 to 7 |
